Measured values taken from the supplement of paper PMC12855868.

B1: library; numbered along this chain (parent)
chain: MAAAGGARLLRAASAVLGGPAGRWLHHAGSRAGSSGLLRNRGPGGSAEASRSLSVSARARSSSEDKITVHFINRDGETLTTKGKVGDSLLDVVVENNLDIDGFGACEGTLACSTCHLIFEDHIYEKLDAITDEENDMLDLAYGLTDRSRLGCQICLTKSMDNMTVRVPETVADARQSIDVGKTS

Variants of: B1
Test: scaled log2 fold change in cell abundance, elesclomol vs control (0 = silent mean, 1 = nonsense mean) (scaled log2 ratio); higher = higher viability under elesclomol (loss of FDX1 cuproptosis function)
Details: glucose 10 mM
Method: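 Deep mutational scan of full-length human FDX1: a pooled saturation-mutagenesis ORF library (every residue 2-184 mutated to all 19 amino acids plus stop, and silent codons where available) was expressed by lentivirus in FDX1-knockout ABC1 (14 days) or HEK293T (11 days) cells grown with elesclomol (ES) or DMSO control. Variant abundance came from ORF sequencing. The log2 fold change (ES vs control, mean of duplicates) was centred on the silent-variant mean (0) and scaled to the nonsense-variant mean (1). Higher values mean greater viability under ES, i.e. loss of FDX1 function in cuproptosis.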

[1] = with ABC1 FDX1 KO, elesclomol 5 nM, 14 days
[2] = with HEK293T FDX1 KO, elesclomol 40 nM, 11 days
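Also: variant abundance is its share of total variant reads in each endpoint sample, from next-generation sequencing of the integrated ORF PCR-amplified out of genomic DNA.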

Variant	scaled log2 fold change [1]	scaled log2 fold change [2]
V85T	-0.279	-0.55
V85W	0.119	0.889
V85H	-0.166	-0.307
V85P	-0.0817	-1.46
V85D	0.12	-0.189
V85K	0.192	-0.177
V85Q	0.0746	-0.0938
V85L	-0.101	0.47
V85S	0.131	-0.121
V85E	-0.055	-0.248
V85Y	-0.534	-0.0166
V85G	0.265	0.288
V85R	0.266	-0.792
V85M	0.00542	-0.0343
V85A	0.0788	-0.325
V85C	-0.197	-0.0853
V85N	-0.0121	0.0182
V85F	0.217	1.05
V85I	-0.161	-0.597
K84Y	-0.449	0.782
K84D	-0.0908	0.0439
K84R	-0.138	-0.784
K84W	0.191	-0.16
K84N	0.0469	0.28

Variant	scaled log2 fold change [1]	scaled log2 fold change [2]
K84H	0.0255	0.273
K84Q	0.0208	-0.794
K84T	-0.0915	-0.906
K84V	0.289	-0.902
K84C	0.225	0.851
K84S	0.112	0.32
K84P	0.11	1.21
K84M	0.138	–
K84I	0.197	1.03
K84L	0.349	-0.439
K84G	-0.452	-0.00112
K84A	-0.0494	0.375
K84F	0.195	0.127
K84E	0.218	-0.39
L89E	0.919	0.768
L89N	1.2	0.434
L89Q	1.64	0.508
L89C	-0.261	0.257
L89V	0.313	-0.151
L89F	0.706	0.454
L89A	-0.0423	–
L89H	1.34	0.109
L89K	1.05	1.47
L89R	1.16	0.853

Variant	scaled log2 fold change [1]	scaled log2 fold change [2]
L89G	0.853	0.301
L89S	1.06	0.924
L89P	0.89	0.172
L89M	0.256	0.404
L89D	1.11	1.26
L89T	-0.121	-0.104
L89Y	0.534	0.223
L89W	0.552	1.33
T81E	0.273	0.0361
T81I	0.266	0.81
T81D	-0.11	-0.616
T81H	0.282	-0.297
T81N	0.308	0.885
T81S	-0.82	1.14
T81G	0.204	-1.09
T81R	0.181	0.0327
T81M	-0.27	0.26
T81Q	-0.159	-0.00467
T81P	0.103	1.32
T81L	0.127	0.885
T81F	0.141	–
T81W	-0.0129	-0.543
T81V	0.0264	-0.0523
T81K	0.0566	0.178

Variant	scaled log2 fold change [1]	scaled log2 fold change [2]
T81Y	-0.015	-0.0662
T81A	0.0513	1.11
T81C	0.0149	-0.28
V93C	-0.0745	0.258
V93E	0.231	-0.85
V93D	0.877	0.496
V93A	-0.15	1.27
D87I	-0.274	-0.421
D87C	-0.824	-0.252
D87R	-0.147	–
D87S	-0.493	–
D87P	0.439	-0.0143
D87H	-0.183	0.121
D87T	-0.14	–
D87E	-0.224	0.0766
D87M	0.055	-0.441
D87W	-0.221	-0.509
D87K	0.34	0.127
D87V	-0.164	-0.704
D87F	0.195	-0.393
D87Q	-0.303	0.511
D87L	-0.301	-0.549
D87N	-0.0848	–
D87G	-0.161	-0.147

Variant	scaled log2 fold change [1]	scaled log2 fold change [2]
D87A	0.0673	–
D87Y	-0.31	-0.0378
G83F	0.576	0.231
G83S	0.0697	-1.34
G83A	0.184	-0.672
G83Y	0.73	0.383
G83Q	0.455	0.716
G83V	0.0583	0.224
G83H	0.285	-0.572
G83K	0.72	0.427
G83M	0.483	0.859
G83C	0.0146	0.00891
G83D	0.697	0.804
G83L	0.777	1.06
G83E	0.881	0.975
G83N	0.304	-0.106
G83I	0.557	0.712
G83P	0.126	-0.345
G83W	0.275	-0.151
G83R	0.756	0.39
G83T	0.0201	-0.4
K82V	-0.0519	0.989
K82G	-0.688	-0.137
K82D	-0.58	-0.293

Variant	scaled log2 fold change [1]	scaled log2 fold change [2]
K82R	-0.619	-0.611
K82N	-0.873	0.352
K82P	-0.285	-0.31
K82Q	-0.471	–
K82W	0.0928	-0.0187
K82T	-0.0344	0.0849
K82S	-0.449	–
K82I	0.215	0.419
K82E	0.0245	-0.309
K82L	0.0365	-0.76
K82H	-0.223	-0.0273
K82C	0.296	0.165
K82F	-0.531	-0.243
K82M	0.172	–
K82Y	-0.328	-0.154
K82A	0.109	–
S88A	0.0293	0.31
S88G	0.17	0.309
S88I	0.199	–
S88W	0.356	-0.287
S88L	0.0552	–
S88Q	0.191	-0.766
S88F	0.301	–
S88E	0.289	0.37

Variant	scaled log2 fold change [1]	scaled log2 fold change [2]
S88T	-0.996	-0.234
S88C	0.057	1.32
S88N	0.582	–
S88V	-0.223	0.0665
D91Q	-1.31	-0.476
D91W	0.0916	-0.265
D91F	0.29	-0.219
D91G	0.216	0.254
D91S	-0.972	0.774
D91P	0.307	0.179
D91T	0.169	–
D91R	-0.658	-0.752
D91E	-0.0305	1.04
D91Y	-0.0508	0.728
D91I	0.418	-0.331
D91L	0.217	-0.127
D91H	-0.00925	-0.865
D91M	-0.119	-1.37
D91V	-0.017	0.747
D91C	0.188	0.246
D91N	0.109	-0.0567
D91K	-0.39	-0.0722
V92C	0.195	-0.64
V92P	0.511	0.131

Variant	scaled log2 fold change [1]	scaled log2 fold change [2]
V92Y	0.0368	-0.087
V92Q	-1.03	0.183
V92E	0.961	0.463
V92K	0.913	0.724
V92A	0.494	-0.354
V92I	-0.0115	0.336
V92R	1.1	0.379
V92G	0.459	0.237
V92N	0.121	0.904
V92T	-0.145	–
V92L	0.019	–
V92H	0.295	0.314
V92M	-0.0956	0.391
V92S	0.501	-0.213
V92W	0.354	-0.298
V92F	0.0178	0.0606
V92D	1.07	1.13
T80E	0.301	-0.0351
T80V	0.126	-0.0679
T80I	0.231	0.056
T80R	-0.0268	-0.512
T80F	0.473	-0.712
T80L	-0.289	-0.147
T80Y	0.26	-0.203

Variant	scaled log2 fold change [1]	scaled log2 fold change [2]
T80K	0.183	-0.131
T80P	0.231	-0.0181
T80S	-0.407	–
T80W	0.177	0.805
T80N	0.128	–
T80G	0.0761	-0.279
T80H	0.295	–
T80M	0.0647	–
T80D	-0.0431	-0.13
T80Q	-0.0848	0.379
G86W	0.246	–
G86F	0.287	-0.571
G86V	0.654	0.478
G86S	0.0131	0.985
G86H	0.239	0.453
G86M	-0.125	-0.231
G86T	0.117	-0.144
G86K	0.242	-0.0346
G86I	0.576	0.0646
G86L	0.171	0.00376
G86C	0.175	1.4
G86P	0.208	0.284
G86D	0.248	-0.689
G86A	0.349	0.0692

Variant	scaled log2 fold change [1]	scaled log2 fold change [2]
G86N	0.233	–
G86R	0.269	-0.218
G86E	0.115	0.852
G86Y	0.0464	0.586
G86Q	-0.2	0.928
L90H	-0.379	1.81
L90K	0.0261	–
L90E	0.187	0.205
L90D	0.478	0.245
L90Q	-0.132	-0.0146
L90C	0.079	0.931
L90M	-0.268	-0.239
L90V	-0.0886	-0.208
L90W	-0.148	0.134
L90A	-0.423	–
L90G	0.46	0.288
L90Y	-0.103	–
L90R	-0.127	-0.461
L90T	-0.871	-0.404
L90P	0.597	0.277
L90I	-0.268	0.924
L90N	0.293	-0.049
L90S	-1	0.27
L90F	0.00898	-0.179
